The source of these data is article PMC11193018 (The Journal of Biological Chemistry, 2024).

For data set [1], the target named is Methanocaldococcus jannaschii GINS, wild type, non-His-tagged (Methanocaldococcus jannaschii). The experiment in a line: SEC. Background: Size exclusion chromatography separates by hydrodynamic size, large species first.
Data set [2] has as its target MjGINS domain A (residues 21-115), as crystallized (Methanocaldococcus jannaschii). In words: crystal structure.
The target of data set [3] is MjGINS-M, dimeric mutant of MjGINS (K58A, K74A, K78A, I101A, I105A) (Methanocaldococcus jannaschii). The experiment in a line: SEC.
Data set [4] deals with the molecule itself. The experiment in a line: crystal structure.
Data set [5] concerns the molecule itself. The experiment in a line: SEC.

One may read the stoichiometry N as the number of molecules, sites or subunits per partner or assembly. For “Methanocaldococcus jannaschii GINS, wild type, non-His-tagged (natural protein)”, the stoichiometry N in data set [1] amounted to 4.

“MjGINS domain A (residues 21-115), as crystallized (domain or fragment)” had a stoichiometry N in data set [2] of 4.

The molecule “MjGINS-M, dimeric mutant of MjGINS (K58A, K74A, K78A, I101A, I105A) (natural protein)” showed a stoichiometry N in data set [3] of 2.

B1: Methanocaldococcus jannaschii RecJ2, tag-free, for crystallization (enzyme)
chain: MMEKLKEIEKVTKAIKEKILNHYGYIRVITHHDTDGLSSGGILAKMLMRTNKLFHLTVVEHLSKEVIEKLAKENEVNKPLFIFADMGSGQIEEIIKHNFNAIILDHHPPVIKDSFINENIIQLNPHIFGVDGSREITASGVCYLVAREFGYYDLSVLAIVGIIGDMQYNPLLGLNKFIVNEAREYRYVKIMNDIVYNIYDVEIYKAIAYCTKPYIPDLASEGKAFKFLKDIGIDPNKKQLDDTDKKKLLSAIIFKYPKIENLLIDRYLIEHKVRDAFLLSEMLNAVGRNGLFAVGIGICLEDDECIKIGNQILWEYKKNLINELKSVKLKKLNNIYYFEGKKGMIGIIASILVDDKPVIGYHIEGDIAKFSARGNRDLVNRGLNLSVAMAVAKEFGGNGGGHDVASGAVVSKDKVQEFLKRVDEIIGEQLRR
Regarding B1, the “stoichiometry N” value in data set [4] came out at 2.

B2: Methanocaldococcus jannaschii RecJ2, wild type, His-tagged (enzyme)
chain: B1 chain
As to B2, in data set [5], the “stoichiometry N” value was 2.
